38 sequences from the supplement of paper PMC9170038 can be followed below.

What all share (settings): FMN input: 0 or 200 uM; Eterna round: R93 (includes R88 designs)
Data set [1] has as its system MS2 coat protein. As to the kind of experiment: apparent KD of MS2 coat protein, switch ON state; designed switch direction (-1 OFF switch, 1 ON switch): 1; higher = weaker reporter binding. The essentials:
(§1)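 Illumina sequencing clusters were used for on-chip transcription of designed RNA switches. Titration with SNAP-549-labelled MS2 coat protein followed, in twofold steps from 0.7 or 1.5 nM to 3 µM in 100 mM Tris-HCl pH 7.5, 80 mM KCl, 4 mM MgCl2, without or with constant ligand. Apparent KD is each design's median of fits to normalised cluster binding curves.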

Data set [2] concerns MS2 coat protein. Kind of data set: apparent KD of MS2 coat protein, switch OFF state (with FMN for OFF switches, without FMN for ON switches); designed switch direction (-1 OFF switch, 1 ON switch): 1; higher = weaker reporter binding. The method, boiled down:
as §1

Data set [3] deals with MS2 coat protein. As to the kind of experiment: apparent KD of MS2 coat protein, switch OFF state (with FMN for OFF switches, without FMN for ON switches); designed switch direction (-1 OFF switch, 1 ON switch): -1; higher = weaker reporter binding. The method, boiled down: as §1
Data set [4] concerns MS2 coat protein. Kind of data set: apparent KD of MS2 coat protein, switch ON state; designed switch direction (-1 OFF switch, 1 ON switch): -1; higher = weaker reporter binding. The essentials: as §1

For “AAAAAAAAGGGUGAGGAUAUCGAAAAAAAAACAUGAGGAUCACCCAUGUGAAAAAAAAAAAAAUGCGAGAAGGCACUAAAAAAAAA [Same State 2.3]”, the “apparent KD of MS2 coat protein” value in the data set on MS2 coat protein [1] is 23.2 nM; in the data set with MS2 coat protein [2], 104 nM.
Taken in the same sequence, the figures for “AAAAAACAUGAGGAUCACCCAUGUAAAAAAAACACAGGAUAUCCCUUUUUUAAAUGAAAAGGAGAAGGGUGAAAAA [Nob's Hobby 9 - Jieux - Same State 1]” were 22.6 nM and 24 nM.
Consider “AAAAAACAUGAGGAUCACCCAUGUAAAAAUAUGGGAGGAUAUGGAAACACGAAAGUGAAACCAGAAGGCUCAAAAG [77%, Mat - Mod of Eli, 17]”, for which the “apparent KD of MS2 coat protein” value in the data set with MS2 coat protein [1] came out at 21.2 nM; in the data set with MS2 coat protein [2], 78.4 nM.
“AAAAAACAUGAGGAUCACCCAUGUAGAAACAUGGGAGGAUAUACAAAGACGAAAGUCAAAGUAGAAGGCCUAAAAA [Mat - Same State 1 - Mod - D157]”: the “apparent KD of MS2 coat protein” value in the data set on MS2 coat protein [1] turned out to be 77.7 nM; with MS2 coat protein [2] it was 33.5 nM.
As for “AAAACACAUGAGGAUCACCCAUGUAAAAACAUGAGAGGAUAUGCAUAGAAAAAAAACUAUGCAGAAGGCUCAUGUG [SS1 - 5]”, the “apparent KD of MS2 coat protein” value is 20 nM with MS2 coat protein [1] and 29.1 nM in the data set with MS2 coat protein [2].
As for “AAAACACAUGAGGAUCACCCAUGUGAAAACAUGGGAGGAUAUGCAUGGAAAACAUGCUAUGCAGAAGGCUCAUGUG [SS1 - 7]”, the figures for the “apparent KD of MS2 coat protein” value in the data set on MS2 coat protein [1] and in the data set on MS2 coat protein [2] were 83.8 nM and 62.6 nM, respectively.
As for “AAAACACAUGAGGAUCACCCAUGUGCAAAAUUCGCAGGAUAUUCCUCAAUUAAAUGAGAGGAAGAAGGGUGAUAAA [Nob's Hobby 33 - Jieux - Same State 1]”, the figures for the “apparent KD of MS2 coat protein” value with MS2 coat protein [1] and in the data set with MS2 coat protein [2] were 18.9 nM and 53.4 nM, respectively.
For “AAAAGACAUGAGGAUCACCCAUGUAAAAACGUGGGAGGAUAUGCAUGGAAAACAUGCUGUGCAGAAGGCCCGUGUC [SS1 - 22]” the same measures were 263 nM and 200 nM.
In the case of “AAAAGACAUGAGGAUCACCCAUGUAAAAACUUGAGAGGAUAUGCUUGGAAAACAUGCUAUGCAGAAGGCUCUAGUC [SS1 - 15]”, the “apparent KD of MS2 coat protein” value in the data set on MS2 coat protein [1] was found to be 18 nM; in the data set with MS2 coat protein [2] it was 26.3 nM.
As to “AAAAUAUAAACGGAGGAUAUCCAAAGAACCACAUGAGGAUCACCCAUGUAAAGAAAGAAUAAGUGGGAGAAGGCCGAAAUAAUAA [Designing denovo 27]”, the “apparent KD of MS2 coat protein” value in the data set with MS2 coat protein [1] worked out at 18.9 nM; with MS2 coat protein [2], 56.9 nM.
On to “AAACAGAUAGGACAGGAUAUGUCGUGAUAAACAUGAGGAUCACCCAUGUGAGACAUCACGUAAUCGCAGAAGGGUCCCGUCUUAC [Usonsoave]”, for which the “apparent KD of MS2 coat protein” value was found to be 11.1 nM with MS2 coat protein [1] and 12.7 nM with MS2 coat protein [2].
In the case of “AAAGGGAUUACGGAGGAUAUGGAAAAAAAAACAUGAGGAUCACCCAUGUCAAAAAAAAAAAAGGACCAGAAGGCCGUAAUCUCAAA [hsl_samestate2]”, the entries for the “apparent KD of MS2 coat protein” value in the data set with MS2 coat protein [1] and with MS2 coat protein [2] were 19.9 nM and 22.6 nM, respectively.
With “AAAGUGCCGACGAAGGAUAUAGCGGGUGAGACAUGAGGAUCACCCAUGUAUGCAGAACUCAUCCUCUAGAAGGUUGAGACGGCUA [Bionlateat]”, the “apparent KD of MS2 coat protein” value in the data set on MS2 coat protein [1] stood at 488 nM; in the data set on MS2 coat protein [2], 138 nM.
On to “AAAUAAAAAAAAAAGGAUAUUCAUGUGAAAACAUGAGGAUCACCCAUGUAAAAAAAUAAAAAUAAAAAGAAGGAAAAAUAAAAAA [SS2: 86 No MS2]”, for which the “apparent KD of MS2 coat protein” value in the data set on MS2 coat protein [1] came to 571 nM; with MS2 coat protein [2], 841 nM.
In the case of “AAAUAAAGGACUGAGGAUAUACCACAUGAAACAUGAGGAUCACCCAUGUAAUAAUACAAAGGGUGGUAGAAGGUAGUCCACAAACA [so let's mod Hyphema]”, the “apparent KD of MS2 coat protein” value in the data set with MS2 coat protein [1] worked out at 14 nM; with MS2 coat protein [2], 26.8 nM.
As to “AAAUGACAUGAGGAUCACCCAUGUCCACCAAACGGAGGAUAUUGGGCGGAAAAACGUUGUUAAGAAGGCCGAAAAA [SS1-1.0]”, the figures for the “apparent KD of MS2 coat protein” value with MS2 coat protein [1] and in the data set with MS2 coat protein [2] were 143 nM and 73.7 nM, respectively.
Consider “AACAAUCUAUCUGAGGAUAUAUGUCGAAAGACAUGAGGAUCACCCAUGUGAAAACAUGAAAAAUAAUAGAAGGCAGAUAGAUUGA [SS2: 1141]”, for which the figures for the “apparent KD of MS2 coat protein” value with MS2 coat protein [1] and in the data set on MS2 coat protein [2] were 80.5 nM and 413 nM, respectively.
For “AACAAUCUAUCUGAGGAUAUAUGUCGAAAGACAUGAGGAUCACCCAUGUGAAAACAUGAAAAGACAUAGAAGGCAGAUAGAUUGA [SS2: 1131]”, the “apparent KD of MS2 coat protein” value in the data set with MS2 coat protein [1] amounted to 27.4 nM; with MS2 coat protein [2], 47.3 nM.
As to “AACAAUCUAUCUGAGGAUAUCAUGUAAAAAACAUGAGGAUCACCCAUGUCUAGGAAAACUAGAUAUGAGAAGGCAGAUAGAUUGA [SS1 - 596]”, the “apparent KD of MS2 coat protein” value came to 110 nM in the data set on MS2 coat protein [1] and 86.1 nM in the data set with MS2 coat protein [2].
Turning to “AACAAUCUAUCUGAGGAUAUCAUGUAAAAAACAUGAGGAUCACCCAUGUGCAGGAAAACUGCAUAUGAGAAGGCAGAUAGAUUGA [SS2 :P - 600]”, the “apparent KD of MS2 coat protein” value in the data set on MS2 coat protein [1] stood at 98.1 nM; in the data set on MS2 coat protein [2], 192 nM.
Consider “AAGAAACAUGAGGAUCACCCAUGUAAAUUUAAGAGAGGAUAUCGUACAUGGAAGAUUUAACGAGAAGGCUCUAGAA [Pariah 2 (MS2 Riboswitches - Same State 1)]”, for which, in the data set with MS2 coat protein [2], the “apparent KD of MS2 coat protein” value is 36.9 nM.
In the case of “GCUGUGGAAGGAUAUACAUGAGGAUCACCCAUGUGAGAGAAAAAAGUGAGAAAGAAAAGUAGAAGGUCCGUAGG [salish99-ex3-98]”, the “apparent KD of MS2 coat protein” value turned out to be 66 nM in the data set on MS2 coat protein [3] and 40.3 nM in the data set with MS2 coat protein [4].
Regarding “GCUUGGCAAGGAUAUACAUGAGGAUCACCCAUGUGAGAGAAAAAAGUGAGAAAGAAAAGUAGAAGGUGCUGAGG [salish99-ex3-109]”, the entries for the “apparent KD of MS2 coat protein” value with MS2 coat protein [3] and in the data set with MS2 coat protein [4] were 82.2 nM and 42.6 nM, respectively.
Regarding “GGAAAACAUGAGGAUCACCCAUGUAAGGAUAUGCUAGGGAGGGAAAAAAUUUCGCCAGGCAGAAGGUACUAAAG [Janelle Amethyst 18 Mod 6 - Jieux - Exclusion 1]”, the “apparent KD of MS2 coat protein” value with MS2 coat protein [3] was 44.7 nM; in the data set on MS2 coat protein [4], 23.5 nM.
Take “GGAAAACAUGAGGAUCACCCAUGUCAGGAUAUGUGAAAAAAAAAAAAAAGAAAAGAAAACAGAAGGGACAAAAG [amethyst 6]”: the “apparent KD of MS2 coat protein” value in the data set on MS2 coat protein [3] was found to be 23.2 nM; with MS2 coat protein [4], 80.8 nM.
“GGUUGGCGAGGAUAUACAUGAGGAUCACCCAUGUGAGAGAAAAAAGUGAGUAAGAAAAGUAGAAGGCGCUGACG [salish99-ex3-33]”: the entries for the “apparent KD of MS2 coat protein” value with MS2 coat protein [3] and with MS2 coat protein [4] were 4710 nM and 49.9 nM, respectively.
As for “GGUUGGCGAGGAUAUACAUGAGGAUCACCCAUGUGAGAGAAAAAAGUGAUAAAGAAAAGUAGAAGGCGCUGACG [salish99-ex3-32]”, the “apparent KD of MS2 coat protein” value stood at 2470 nM in the data set on MS2 coat protein [3] and 120 nM in the data set on MS2 coat protein [4].
On to “GGUUGUCGAGGAUAUACAUGAGGAUCACCCAUGUGAGAGAAAAAAGUGAGAAAGAAAAGUAGAAGGUGGUGACG [salish99-ex3-71]”, for which the “apparent KD of MS2 coat protein” value is 92.9 nM in the data set with MS2 coat protein [3] and 57.6 nM in the data set on MS2 coat protein [4].
“GUCCUACAUGAGGAUCACCCAUGUCAGGAUAUGCACCGGUUGCUUUAGACCGGUAAAGGCAGAAGGGACGGGUG [Orzadima]”: the “apparent KD of MS2 coat protein” value in the data set with MS2 coat protein [3] worked out at 19.8 nM; with MS2 coat protein [4] it was 23.2 nM.
As to “UAAAAACAUGAGGAUCACCCAUGUCAGGAUAUGUGCUUAAUAAAAAAAUAAAUAACAAGCAGAAGGGACAAUAA [JR_Exc001_Sub201]”, the “apparent KD of MS2 coat protein” value with MS2 coat protein [3] was found to be 34.4 nM; in the data set with MS2 coat protein [4], 35 nM.
With “UAAAAUAAAGGAUAUAAAACAGAGGAUAUACAUAAAUAAAAACAUGAGGAUCACCCAUGUAGAAGGCUGAAAAU [Meechl Ex2 R2 m1]”, the “apparent KD of MS2 coat protein” value with MS2 coat protein [3] stood at 28.4 nM; with MS2 coat protein [4], 29 nM.
As to “UAAAGACAUGAGGAUCACCCAUGUGAGGAUAUCGGUGACUAUAAAAAAAAAUAGUCACCGAGAAGGCACAGAAA [JR_Exc001_Sub301]”, the “apparent KD of MS2 coat protein” value in the data set on MS2 coat protein [3] amounted to 117 nM; in the data set with MS2 coat protein [4], 43.2 nM.
With “UACAUACAUGAGGAUCACCCAUGUCAGGAUAUGUGCUCAGUGAAAAACAAAGAAACAAGCAGAAGGGACACUAA [JR_Exc001_Sub203]”, the results for the “apparent KD of MS2 coat protein” value in the data set with MS2 coat protein [3] and in the data set on MS2 coat protein [4] were 37.5 nM and 41.8 nM, respectively.
As for “UAGAACCUAGGAUAUACUUGGGAAACUAAUGCAAAGAUAUAACAUGAGGAUCACCCAUGUAGAAGGAGGAGUAA [JR_Exc002_Sub019]”, the “apparent KD of MS2 coat protein” value in the data set with MS2 coat protein [3] came to 132 nM; in the data set on MS2 coat protein [4], 84.5 nM.
For the sequence “UAUAGACAUGAGGAUCACCCAUGUGAGGAUAUCAGUGACUACAGGACAUCACGUACAAUGAGAAGGCACAGAAA [JR_Exc001_Sub015]”, the “apparent KD of MS2 coat protein” value in the data set on MS2 coat protein [3] is 45.2 nM; with MS2 coat protein [4] it was 34.7 nM.
As to “UCGAUGCGAGGAUAUACUAAGGCAACUACUGCAGCUCAAAAACAUGAGGAUCACCCAUGUAGAAGGCGCAUAUA [JR_Exc002_Sub304]”, the “apparent KD of MS2 coat protein” value is 18.1 nM in the data set on MS2 coat protein [3] and 19.6 nM with MS2 coat protein [4].
Consider “UUAGAACAUGAGGAUCACCCAUGUGAGGAUAUGCAAUACUAGCGACAAGAUCGUUAUAGCAGAAGGCACGUAGU [JR_EXc001_Sub807]”, for which the “apparent KD of MS2 coat protein” value in the data set with MS2 coat protein [3] is 64.5 nM; in the data set with MS2 coat protein [4] it was 38.6 nM.
In the case of “UUUAUGUGAGGAUAUACGAAUAGUAAGUAAGUAUUACAGACGUAGAAGGCACAUGAGGAUCACCCAUGUGAAUA [JR_Exc004_Sub307]”, the “apparent KD of MS2 coat protein” value with MS2 coat protein [3] came out at 58.8 nM; with MS2 coat protein [4] it was 32.7 nM.
